Positions count from the first letter of the chain named.
T1: human KLRB1 expressed on CHO-hum-KLRB1 cells (human, UniProt Q12918 1-225)
T1 sequence: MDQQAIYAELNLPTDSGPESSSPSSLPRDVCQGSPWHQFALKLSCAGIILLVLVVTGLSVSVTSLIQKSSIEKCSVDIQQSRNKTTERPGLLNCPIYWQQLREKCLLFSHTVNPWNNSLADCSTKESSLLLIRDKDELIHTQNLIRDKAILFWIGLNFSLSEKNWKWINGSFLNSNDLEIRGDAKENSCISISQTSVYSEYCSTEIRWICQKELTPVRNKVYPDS

T2: human KLRB1 extracellular domain (ECD), amino acids 67-225 of human KLRB1 protein (human, UniProt Q12918 67-225)
T2 construct: Soluble analyte in SPR; also called KLRB1 ECD; CD161 ECD
T2 sequence: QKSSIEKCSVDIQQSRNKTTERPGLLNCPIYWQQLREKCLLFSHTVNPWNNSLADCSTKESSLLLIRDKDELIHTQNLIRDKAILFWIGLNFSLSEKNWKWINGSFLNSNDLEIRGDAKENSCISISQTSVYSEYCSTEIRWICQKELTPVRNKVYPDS

B1: 10A3D6hum2.2 (antibody, human IgG1, V domains shown)
VH: QVQLVQSGAEVKKPGASVKVSCKASGYSFTGYTMNWVRQAPGQNLEWIGLINPNTGGTYYNQKFKDRVTLTVDTSISTAYMELSRLRSDDTAVYYCARLGDNYRGYFDSWGQGTTVTVSS
VL: DIQLTQSPSFLSASVGDRVTITCKASQDVGTAVVWYQQKPGKAPKLLIDWASIRHTGVPSRFSGSGSGTEFTLTISSLQPEDFADYFCQQYSTYLYTFGGGTKLEIK
notes: tested as human IgG1-kappa produced in CHO cells
B2: antibody 13.2 (antibody, human IgG1, kappa, V domains shown)
VH: B1 VH with S28T, N44G, I48M, N54S, L70M, V72R, S109Y
VL: EIVMTQSPATLSVSPGERATLSCRASQDVGTAVVWYQQKPGQAPRLLIDWASIRHTGIPARFSGSGSGTEFTLTISSLQSEDFAVYYCQQYSTYLYTFGGGTKVEIKR
notes: Human IgG1-kappa produced in CHO cells
B3: 10A3D6hum1.2 (antibody, human IgG1, V domains shown)
VH: B1 VH with N44G, I48M, L70M, V72R
VL: B1 VL
notes: as for B1
B4: antibody 12.0 (antibody, human IgG1, kappa, V domains shown)
VH: B1 VH with S28T, N44G, I48M, N54S, L70M, V72R, S109Y
VL: DIQLTQSPSFLSASVGDRVTITCRASQDVGTAVVWYQQKPGKAPKLLIDWASIRHTGVPSRFSGSGSGTEFTLTISSLQPEDFATYYCQQYSTYLYTFGGGTKLEIKR
notes: as for B2
B5: antibody 11.45 (antibody, human IgG1, kappa, V domains shown)
VH: B1 VH with S28T, N44G, I48M, N54S, T55S, L70M, V72R, S109Y
VL: B4 VL with R24K
notes: as for B2
B6: antibody 11.12 (antibody, human IgG1, kappa, V domains shown)
VH: B1 VH with N44G, I48M, L70M, V72R, S109Y
VL: B4 VL with R24K, T85D, Y87F
notes: as for B2
B7: antibody 11.55 (antibody, human IgG1, kappa, V domains shown)
VH: B1 VH with N44G, I48M, N54S, T55S, L70M, V72R, S109Y
VL: B4 VL
notes: as for B2
B8: antibody 11.44.1 (antibody, human IgG1, kappa, V domains shown)
VH: B1 VH with N44G, I48M, N54S, T55S, L70M, V72R, S109V
VL: B4 VL with R24K
notes: as for B2
B9: antibody 11.54 (antibody, human IgG1, kappa, V domains shown)
VH: B1 VH with N44G, I48M, N54S, T55S, L70M, V72R, S109Y
VL: B4 VL with R24K, T31S, T56S
notes: as for B2
B10: antibody 11.29 (antibody, human IgG1, kappa, V domains shown)
VH: B1 VH with N44G, I48M, N54S, T55S, L70M, V72R
VL: B4 VL with R24K, T85D, Y87F
notes: as for B2
B11: antibody 11.27 (antibody, human IgG1, kappa, V domains shown)
VH: B1 VH with N44G, I48M, N54S, L70M, V72R
VL: B4 VL with R24K, T85D, Y87F
notes: as for B2
B12: antibody 11.57 (antibody, human IgG1, kappa, V domains shown)
VH: B1 VH with S28T, N44G, I48M, N54S, T55S, L70M, V72R, S109Y
VL: B4 VL with T31S, T56S
notes: as for B2
B13: antibody 11.41.1 (antibody, human IgG1, kappa, V domains shown)
VH: B1 VH with N44G, I48M, N54S, L70M, V72R, S109V
VL: B4 VL with R24K
notes: as for B2
B14: 10A3D6hum8.2 (antibody, human IgG1, V domains shown)
VH: B1 VH with N54A, S109V
VL: B1 VL
notes: as for B1
B15: antibody 13.4 (antibody, human IgG1, kappa, V domains shown)
VH: B1 VH with S28T, N44G, I48M, N54S, L70M, V72R, S109Y
VL: B2 VL with Y94W, L95P, Y96L
notes: as for B2
B16: antibody 13.5 (antibody, human IgG1, kappa, V domains shown)
VH: B1 VH with S28T, N44G, I48M, N54S, L70M, V72R, S109Y
VL: B2 VL with D28S, Y94W, L95P, Y96L
notes: as for B2
B17: antibody 12.3 (antibody, human IgG1, kappa, V domains shown)
VH: B1 VH with S28T, N44G, I48M, N54S, L70M, V72R, S109Y
VL: B4 VL with D28G, V29I, G30S, T31S, A32Y, V33L, V34A, D49Y, Y91L, L95P
notes: as for B2
B18: antibody 12.1.3 (antibody, human IgG1, kappa, V domains shown)
VH: B1 VH with S28T, N44G, I48M, N54S, L70M, V72R, S109Y
VL: B4 VL with D28G, V29I, T31S
notes: as for B2
B19: antibody 12.2 (antibody, human IgG1, kappa, V domains shown)
VH: B1 VH with S28T, N44G, I48M, N54S, L70M, V72R, S109Y
VL: B4 VL with D28G, V29I, G30S, T31S, A32Y, V33L, V34A
notes: as for B2
B20: antibody 13.6 (antibody, human IgG1, kappa, V domains shown)
VH: B1 VH with S28T, N44G, I48M, N54S, L70M, V72R, S109Y
VL: B2 VL with D28S, A32N, V33L, V34A, Y94W, L95P, Y96L
notes: as for B2

Biological target: T1, human KLRB1 expressed on CHO-hum-KLRB1 …
Assay: cell-based or functional assay

Span (fitted span of the ADCC dose-response curve, % target cell lysis of CHO-K1/human KLRB1 cells with PBMCs, E:T=25:1)	Binder
74.2 % Target Cell Lysis (axis; the table prints no unit)	B1
77.8 % Target Cell Lysis (axis; the table prints no unit)	B2
75 % Target Cell Lysis (axis; the table prints no unit)	B3
80.8 % Target Cell Lysis (axis; the table prints no unit)	B4

Biological target: T2, human KLRB1 extracellular domain (ECD), …
Assay: SPR (Biacore 8K), antibody fixed on chip, human KLRB1 ECD as analyte
Experimental: (§1) Various humanized antibodies derived from humanized variants of antibody 10A3D6 with human IgG1-kappa were produced in CHO cells and then assayed for binding against human KLRB1 extracellular domain (ECD) via surface plasma resonance (SPR). Human KLRB1 extracellular domain was amino acids 67-225 from human KLRB1 protein (SEQ ID NO: 1). […] Antibody was fixed to the chip and analyte of human KLRB1 extracellular domain (ECD) was flowed over the surface at 30 ul/min, with contact time 120 seconds and dissociation time 360 seconds. The results are shown from two separate experiments in Tables 20 and 21.

Kd [nM]	koff [s⁻¹]	kon [M⁻¹ s⁻¹]	Binder
1.26	0.000227	181000	B5
0.263	8.18e-05	311000	B1
0.275	0.00012	434000	B6
1.23	0.00022	180000	B7
1.09	0.000234	215000	B8
2.24	0.000315	141000	B9
0.743	0.000207	278000	B10
0.314	0.000123	391000	B11
2.08	0.000308	148000	B12
0.414	0.000167	403000	B13
0.512	0.000171	335000	B14
0.279	0.000135	485000	B3

Biological target: T1, human KLRB1 expressed on CHO-hum-KLRB1 …
Assay: cell-based or functional assay
Remark: another data set of the same source

EC50 for ADCC (target cell lysis, LDH release) [nM]	Binder
0.0048	B1
0.0083	B2
0.0058	B3
0.0054	B4

Biological target: T2, human KLRB1 extracellular domain (ECD), …
Assay: SPR (Biacore 8K), antibody fixed on chip, human KLRB1 ECD as analyte; second experiment
Experimental: as §1

Kd [nM]	koff [s⁻¹]	kon [M⁻¹ s⁻¹]	Binder
14.6	0.00217	149000	B15
20.3	0.00177	87300	B16
0.444	0.000133	300000	B2
68.8	0.00135	19700	B17
1.75	0.000248	141000	B18
2.52	0.000308	122000	B12
1.54	0.000236	153000	B19
44.8	0.00269	60000	B20
0.344	0.000107	310000	B3
0.597	0.000145	243000	B4

Reference: patent US20260258139A1 (BRIGHAM AND WOMEN S HOSPITAL, published 2026)
